Test results reported in article PMC3060076 (PLoS Genetics, 2011).

T1: Myc-Smo (6Myc-tagged Smoothened) (Drosophila, UniProt P91682 32-1036)
T1 sequence (looked up): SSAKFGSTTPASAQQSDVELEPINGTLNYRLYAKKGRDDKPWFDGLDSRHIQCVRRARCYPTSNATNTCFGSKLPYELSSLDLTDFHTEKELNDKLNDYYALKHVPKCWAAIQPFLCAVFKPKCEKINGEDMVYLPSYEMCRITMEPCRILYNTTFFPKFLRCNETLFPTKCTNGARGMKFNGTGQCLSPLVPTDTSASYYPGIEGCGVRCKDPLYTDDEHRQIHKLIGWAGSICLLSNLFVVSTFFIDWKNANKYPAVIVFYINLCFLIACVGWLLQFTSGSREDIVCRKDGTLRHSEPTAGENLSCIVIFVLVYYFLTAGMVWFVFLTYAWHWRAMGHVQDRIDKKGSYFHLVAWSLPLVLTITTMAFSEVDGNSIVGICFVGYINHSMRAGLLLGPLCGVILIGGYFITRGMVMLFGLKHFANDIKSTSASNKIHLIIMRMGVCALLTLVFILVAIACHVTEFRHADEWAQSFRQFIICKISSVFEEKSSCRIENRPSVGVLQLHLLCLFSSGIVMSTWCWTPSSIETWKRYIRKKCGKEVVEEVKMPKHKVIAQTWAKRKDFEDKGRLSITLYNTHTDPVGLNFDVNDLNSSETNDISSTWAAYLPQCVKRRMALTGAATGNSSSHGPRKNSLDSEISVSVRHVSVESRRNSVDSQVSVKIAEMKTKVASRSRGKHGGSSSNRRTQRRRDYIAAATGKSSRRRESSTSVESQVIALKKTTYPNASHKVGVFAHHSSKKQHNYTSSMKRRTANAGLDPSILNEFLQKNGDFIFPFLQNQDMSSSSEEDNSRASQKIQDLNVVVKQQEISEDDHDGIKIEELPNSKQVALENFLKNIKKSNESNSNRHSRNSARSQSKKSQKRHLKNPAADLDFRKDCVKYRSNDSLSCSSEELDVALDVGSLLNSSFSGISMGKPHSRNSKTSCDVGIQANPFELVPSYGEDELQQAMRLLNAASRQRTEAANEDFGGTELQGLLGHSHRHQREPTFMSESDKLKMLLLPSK


Target: T1, Myc-Smo (6Myc-tagged Smoothened)
Test: co-IP; lysates of stable Myc-Smo S2 cells transiently transfected with pAWF-krz constructs, grown in Hh conditioned medium for 18-24 hrs; immunoprecipitated with anti-Myc agarose at 4°C for 4-16 h with 1 mg/ml BSA (IP buffer: 40 mM Tris-HCl, 200 mM NaCl, 1% Chapso, 0,5% NP40); blotted with anti-Krz serum and anti-Myc
Settings: partners not purified

fold of co-immunoprecipitate over wild type Krz [times over wild type Krz]	Binder
4	Krz^Leu-Flag (pAWF-Krz^Leu; Leu440-Ile441-Leu443 to Ala) (natural protein, Drosophila, UniProt Q9V393 1-470, looked up) MNGGGGGSGGANVSNGSSTNVTAAGSTGGGSAGDETGGDASSRRQATRVFKKSSSNGKITVYLGKRDFVDHVTHVDPIDGVVFIDPEYVKDRKVFGQVLAAFRYGREDLDVLGLTFRKDLYLAHEQIYPPMQLDRPMTRLQERLIKKLGPNAHPFYFEVPPYCPASVSLQPAPGDVGKSCGVDYELKAFVGENVEDKPHKRNSVRLTIRKVMYAPSKVGEQPSIEVSKEFMMKPNKIHLEATLDKELYHHGEKISVNVHVANNSNRTVKKIKVCVRQFADICLFSTAQYKSVVAEIESEDGCQVAPGFTLSKVFELCPLLANNKDKWGLALDGQLKHEDTNLASSTLITNPAQRESLGIMVHYKVKVKLLISSPLLNGDLVAELPFTLMHPKPEEEEHPLLGERSPRASLAGGGLPLVSMSDGETESATGGQDVPTTTNAAQADDDEAQDDDIIFEDFARLRLKGAETEA
3	Krz^V94D-Flag (pAWF-Krz^V94D) (natural protein, Drosophila, UniProt Q9V393 1-470, looked up) MNGGGGGSGGANVSNGSSTNVTAAGSTGGGSAGDETGGDASSRRQATRVFKKSSSNGKITVYLGKRDFVDHVTHVDPIDGVVFIDPEYVKDRKDFGQVLAAFRYGREDLDVLGLTFRKDLYLAHEQIYPPMQLDRPMTRLQERLIKKLGPNAHPFYFEVPPYCPASVSLQPAPGDVGKSCGVDYELKAFVGENVEDKPHKRNSVRLTIRKVMYAPSKVGEQPSIEVSKEFMMKPNKIHLEATLDKELYHHGEKISVNVHVANNSNRTVKKIKVCVRQFADICLFSTAQYKSVVAEIESEDGCQVAPGFTLSKVFELCPLLANNKDKWGLALDGQLKHEDTNLASSTLITNPAQRESLGIMVHYKVKVKLLISSPLLNGDLVAELPFTLMHPKPEEEEHPLLGERSPRASLAGGGLPLVSMSDGETESATGGQDVPTTTNLIQLDDDEAQDDDIIFEDFARLRLKGAETEA
